Results on five compounds are retold here after publication PMC6471467, “Comparing Gly^11/DAla^11-Replacement vs. the in-Situ Neprilysin-Inhibition Approach on the Tumor-targeting Efficacy of the ^111In-SB3/^111In-SB4 Radiotracer Pair” (Molecules, 2019).

Data set [1] can be described thus: Biodistribution in SCID mice bearing PC-3 xenografts. It counts as in vivo. Conditions: female, mouse, pancreas, total radioactivity, average ± sd; for tissue uptake at 4 h: 4 h pi; for tissue uptake at 24 h: 24 h pi, n = 4, read-out: Pancreatic uptake, 24 h pi. As for the experimental part: A suspension containing freshly harvested human PC-3 cells (≈150 μL of a ≈1.2 × 10^7 cells) was subcutaneously injected in the flanks of female SCID mice (15 ± 3 g, six weeks of age at the day of arrival, NCSR “Demokritos” Animal House Facility).
Animals were euthanized at 4 and 24 h pi and dissected; samples of blood, tumors and organs of interest were collected, weighed and measured for radioactivity in the gamma counter. Intestines and stomach were not emptied of their contents. Data was calculated as percent injected dose per gram tissue (%ID/g) with the aid of standard solutions and represent mean values±sd, n = 4.

Data set [2] can be described thus: In vivo stability in peripheral mouse blood (radio-HPLC). Set-up: species or system mice. Conditions: blood 5 min pi; for Intact radiotracer in mouse blood, representative radiochromatogram, PA-coinjection: coinjection of 300 µg phosphoramidon (PA), HPLC system 2, single representative sample (Figure 3c,d); for Intact radiotracer in mouse blood, representative radiochromatogram: without PA-coinjection, HPLC system 2, single representative sample (Figure 3a,b); for Intact radiotracer in peripheral mouse blood: healthy male Swiss albino mice, iv 3 nmol peptide, without PA, radio-HPLC, mean ± sd, n = 3. As to the method:
For stability experiments (approved protocol # 1609, Prefecture of Attica), healthy male Swiss albino mice (30 ± 5 g, NCSR “Demokritos” Animal House Facility) were used. The radioligand, ^111In-SB3 or ^111In-SB4, was injected as a 100 μL bolus (11–22 MBq, 3 nmol total peptide) in the tail vein together with injection solution (100 µL; control) or with a phosphoramidon (PA)-solution (100 µL injection solution containing 300 µg PA). Animals were euthanized and blood (0.5–1 mL) was directly withdrawn from the heart and transferred in a pre-chilled EDTA-containing Eppendorf tube on ice. Blood samples were centrifuged for 10 min at 2000 g/4 °C and plasma was collected. After addition of an equal volume of ice-cold MeCN the mixture was centrifuged for 10 min at 15,000 g/4 °C. The supernatant was concentrated under a N2-flux at 40 °C to 0.05-0.1 mL, diluted with saline (0.4 mL), filtered through a 0.22 μm Millex GV filter (Millipore, Milford, USA) and analyzed by RP-HPLC. The Symmetry Shield RP18 (5 μm, 3.9 mm × 20 mm) column was eluted at a flow rate of 1.0 mL/min with the following linear gradient (system 2): 0% B at 0 min to 10% B in 10 min and then in 40 min to 30% B; A = 20 mM ammonium acetate and B = MeCN. The tR of the intact radiopeptide was determined by coinjection with the ^111In-SB3 or ^111In-SB4 reference in the HPLC.

The next data set has as its target GRPR (Homo sapiens, UniProt P30550). The data set is described as follows: biochemical.
The conditions of data set [3]: small library of ^99mTc-labeled analogs with acyclic tetraamine chelator; cited from earlier work. An excerpt: Earlier work on the development of GRPR-antagonists generated a solid body of structure-activity relationships data, pinpointing at important factors for sustained in vivo action. […] Metabolic stability could be enhanced by suitable structural modifications, including DAla^11/Gly^11 in BBN-based or DAla^24/Gly^24 in GRP-based peptide ligands.

Setting [4] is: iv, with phosphoramidon (PA), 300 µg co-injected (NEP-inhibition), coinjection of 300 µg PA, n = 4, read-out: Pancreatic uptake, 4 h pi, PA-coinjection.
The mark [5] stands for this setting: iv 10 pmol peptide, control, n = 4, read-out: Pancreatic uptake, 4 h pi.

Values joined by “and” are separate entries in the source; they are usually repeats but may differ in a detail not shown here. Identical values can stand only once. Like-named read-outs stand apart in the source and are kept apart here. Peptide text beside a SMILES is read from it.

Broadly, the IC50 is the concentration that gives 50% inhibition. Higher therefore signals lower potency.

GRPR, sequence (P30550 whole entry): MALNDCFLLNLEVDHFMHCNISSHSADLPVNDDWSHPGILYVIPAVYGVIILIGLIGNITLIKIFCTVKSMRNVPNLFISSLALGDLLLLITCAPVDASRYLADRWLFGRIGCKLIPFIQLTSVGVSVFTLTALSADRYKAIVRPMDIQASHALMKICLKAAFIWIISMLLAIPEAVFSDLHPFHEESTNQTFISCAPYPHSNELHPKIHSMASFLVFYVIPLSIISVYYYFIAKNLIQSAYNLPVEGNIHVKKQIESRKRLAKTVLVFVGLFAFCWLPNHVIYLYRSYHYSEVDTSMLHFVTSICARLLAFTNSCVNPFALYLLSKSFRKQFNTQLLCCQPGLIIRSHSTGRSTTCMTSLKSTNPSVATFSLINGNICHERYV
Description for GRPR: Human androgen-independent prostate adenocarcinoma PC-3 cells endogenously expressing the human GRPR (LGC Promochem, Teddington, UK) were used in the present study [24]. Cells were cultured in Roswell Park Memorial Institute (RPMI)-1640 medium, supplemented with 10% heat-inactivated fetal bovine serum (FBS), 100 U/mL penicillin and 100 µg/mL streptomycin, and kept in a controlled humidified atmosphere containing 5% CO2 at 37 °C. Passages were performed weekly using a trypsin/EDTA (0.05%/0.02% w/v) solution. All culture media were purchased from Gibco BRL, Life Technologies and supplements were provided by Biochrom KG Seromed.
For the assay, triplicates per concentration point (concentration range: 10^−13–10^−6 M) of each test peptide were incubated together with the radioligand (~40,000 cpm per assay tube, at a 50 pM concentration) in PC-3 cell-membrane homogenates in a total volume of 300 μL binding buffer (BB, 50 mM HEPES pH 7.4, 1% BSA, 5.5 mM MgCl2, 35 μM bacitracin) for 1 h at 22 °C in an Incubator-Orbital Shaker (MPM Instr. SrI, Italy). Binding was interrupted by ice-cold washing buffer (WB, 10 mM HEPES pH 7.4, 150 mM NaCl) and rapid filtration (Whatman GF/B filters presoaked in BB) on a Brandel Cell Harvester (Adi Hassel Ing. Büro, Munich, Germany). Filters were washed with ice-cold WB and counted in an automatic well-type gamma counter (NaI(Tl) 3´´-crystal, Cobra Packard Auto-Gamma 5000 series instrument). The half maximal inhibitory concentration (IC50) values were calculated using nonlinear regression according to a one-site model applying the PRISM 2 program (Graph Pad Software, San Diego, CA) and represent the mean±sd from three independent experiments performed in triplicate.

Take `CCNC(=O)[C@H](CC(C)C)NC(=O)[C@H](Cc1c[nH]cn1)NC(=O)CNC(=O)[C@@H](NC(=O)[C@H](C)NC(=O)[C@H](Cc1c[nH]c2ccccc12)NC(=O)[C@H](CCC(N)=O)NC(=O)[C@@H](Cc1ccccc1)NC(=O)COCC(=O)Nc1ccc(CNC(=O)CN2CCN(CC(=O)O)CCN(CC(=O)O)CCN(CC(=O)O)CC2)cc1)C(C)C` [^111In-SB3, metal not drawn]: in data set [1] (setting [4]), the tissue uptake at 4 h came out at 33.1 ± 6.2 %ID/g. The tissue uptake at 24 h in data set [1] (iv 10 pmol peptide) came out at 0.6 ± 0.1 %ID/g. Moreover, in data set [1] (setting [5]), the tissue uptake at 4 h was found to be 3.5 ± 0.4 %ID/g. Besides, in data set [2], the “Intact radiotracer in mouse blood, representative radiochromatogram, PA-coinjection” value is 98.9 % intact radiotracer; the “Intact radiotracer in mouse blood, representative radiochromatogram” value was found to be 55 % intact radiotracer; the “Intact radiotracer in peripheral mouse blood” value worked out at 56 ± 2 % intact.
`CCNC(=O)[C@H](CC(C)C)NC(=O)[C@H](Cc1c[nH]cn1)NC(=O)[C@@H](C)NC(=O)[C@@H](NC(=O)[C@H](C)NC(=O)[C@H](Cc1c[nH]c2ccccc12)NC(=O)[C@H](CCC(N)=O)NC(=O)[C@@H](Cc1ccccc1)NC(=O)COCC(=O)Nc1ccc(CNC(=O)CN2CCN(CC(=O)O)CCN(CC(=O)O)CCN(CC(=O)O)CC2)cc1)C(C)C` [SB4, DOTA-p-aminomethylaniline-diglycolic acid-DPhe-Gln-Trp-Ala-Val-DAla-His- Leu-NHEt] (HELM PEPTIDE1{[O=C(O)CN1CCN(CC(=O)O)CCN(CC(=O)NCc2ccc(NC(=O)COCC(=O)[*:2])cc2)CCN(CC(=O)O)CC1].[dF].Q.W.A.V.[dA].H.L.[CCN[*:1]]}$$$$V2.0): the IC50 at GRPR was 11.2 nM and 10.7 nM.
Take `CCNC(=O)[C@H](CC(C)C)NC(=O)[C@H](Cc1c[nH]cn1)NC(=O)[C@@H](C)NC(=O)[C@@H](NC(=O)[C@H](C)NC(=O)[C@H](Cc1c[nH]c2ccccc12)NC(=O)[C@H](CCC(N)=O)NC(=O)[C@@H](Cc1ccccc1)NC(=O)COCC(=O)Nc1ccc(CNC(=O)CN2CCN(CC(=O)O)CCN(CC(=O)O)CCN(CC(=O)O)CC2)cc1)C(C)C` [^111In-SB4, metal not drawn] (HELM PEPTIDE1{[O=C(O)CN1CCN(CC(=O)O)CCN(CC(=O)NCc2ccc(NC(=O)COCC(=O)[*:2])cc2)CCN(CC(=O)O)CC1].[dF].Q.W.A.V.[dA].H.L.[CCN[*:1]]}$$$$V2.0): the tissue uptake at 4 h in data set [1] (setting [4]) is 4.9 ± 0.7 %ID/g. Also, the tissue uptake at 24 h in data set [1] (iv 10 pmol peptide) came to 0.1 %ID/g. In addition, the tissue uptake at 4 h in data set [1] (setting [5]) was found to be 1.6 ± 0.8 %ID/g. For the same compound, in data set [2], the “Intact radiotracer in mouse blood, representative radiochromatogram, PA-coinjection” value worked out at 99.7 % intact radiotracer; the “Intact radiotracer in mouse blood, representative radiochromatogram” value was 77 % intact radiotracer; the “Intact radiotracer in peripheral mouse blood” value is 80 ± 3 % intact.
Take `CCNC(=O)[C@H](CC(C)C)NC(=O)[C@H](Cc1c[nH]cn1)NC(=O)CNC(=O)[C@@H](NC(=O)[C@H](C)NC(=O)[C@H](Cc1c[nH]c2ccccc12)NC(=O)[C@H](CCC(N)=O)NC(=O)[C@@H](Cc1ccccc1)NC(=O)COCC(=O)Nc1ccc(CNC(=O)CN2CCN(CC(=O)O)CCN(CC(=O)O)CCN(CC(=O)O)CC2)cc1)C(C)C` [SB3]: at GRPR, the IC50 turned out to be 4.6 ± 0.3 nM.
On to “^99mTc-[N4-p-aminomethylaniline-diglycolic acid-DPhe^6,DAla^11,Leu^13-NHEt]BBN(6-13)”, for which the “Metabolic stability, rank within the library” value in data set [3] is “highest metabolic stability”.
